# Measurements published in the DeepSol protein solubility set.
# Assay: soluble on expression in E. coli; label from the status in PepcDB or PDB records
row,Sequence,soluble on expression in E. coli
1,MSLDLNQIKAVVFDLEGTLLDRVKSREKFIEEQYERFHDYLIHVQLADFKKAFIELDDDEDNDKPDLYKEIIKRFHVDRLTWKDLFNDFEMHFYRYVFPYYDTLYTLEKLSQKGFQIGVIANGKSKIKQFRLHSLGLMHVINYLSTSETVGFRKPHPKIFEDMIDQLGVLPEQIMYVGDDALNDVAPARAMGMVSVWYKQEDAEIEPLEEEVDFTITTVEELLTILPIKNDNKGENYGSIYEGHHHHHH,soluble
2,MNTISGTHFNYHQVCRRKLWLFSAGITMEHTSDLVYEGKLIHETTYQQRPERYQELELDGIKIDFYDAKNRVVHEVKKSNKISPAHRLQLLYYLYVLERNGVLGATGILEYPTLRKKEEVILSDIDRERIREIEQEILQIISHEDCPPVIDSGICKNCSYYEFCFSGEEQ,not soluble
3,MAHHHHHHMCLVKLYKRCFVRVPPHCVTVVYETRRNSILASSMEEANNELPQVSHFRPLMYIVSLLLYRSKKLVIVPPTSFFSTFTLPCSVLDESGDGEVVDCTVEDIHVTDGSVRMVMTIRYCIPINELERYLAAVGPTAPNERIALAAAGAARARGAELSVGLIINKSKRDTAFLEPFRAHLSSKLMSESCVKVLDVVVEAAEIADRSLGG,not soluble
4,GSHMLEMSGPRAGFYRQELNKTVWEVPQRLQGLRPVGSGAYGSVCSAYDARLRQKVAVKKLSRPFQSLIHARRTYRELRLLKHLKHENVIGLLDVFTPATSIEDFSEVYLVTTLMGADLNNIVKCQALSDEHVQFLVYQLLRGLKYIHSAGIIHRDLKPSNVAVNEDSELRILDFGLARQADEEMTGYVATRWYRAPEIMLNWMHYNQTVDIWSVGCIMAELLQGKALFPGSDYIDQLKRIMEVVGTPSPEVLAKISSEHARTYIQSLPPMPQKDLSSIFRGANPLAIDLLGRMLVLDSDQRVSAAEALAHAYFSQYHDPEDEPEAEPYDESVEAKERTLEEWKELTYQEVLSFKPPEPPKPPGSLEIEQ,soluble
5,MAGDPMPTLFDDPLHQLPRPPRRVAAGVVHLPNFLGLAEQKALVAQARDLAREVVGTPLAMVRPKLKSGQMSVHMLHLGKYWASNPYRYVDVVDGFPVPPLPDSFVDLAHRALLSAGSLSNSLQSWSEAYRAEAALVNYYSPDASMGMHQDANEESEAPVISLSIGDTGIFRLGGTLNRNKPWTDIPLMSGDLIVFGGANRQAFHGIPSIEANTAPAGCGLKEGRINITIRQLALAAALEHHHHHH,soluble
6,MAVKEATSETKKRSGYEIITLTSWLLQQEQKGIIDAELTIVLSSISMACKQIASLVQRANISNLTGTQGAVNIQGEDQKKLDVISNEVFSNCLRSSGRTGIIASEEEDVPVAVEESYSGNYIVVFDPLDGSSNLDAAVSTGSIFGIYSPNDECLPDFGDDSDDNTLGTEEQRCIVNVCQPGSNLLAAGYCMYSSSVIFVLTIGKGVFVFTLDPLYGEFVLTQENLQIPKSGKIYSFNEGNYKLWDENLKKYIDDLKEPGPSGKPYSARYIGSLVGDFHRTLLYGGIYGYPRDKKSKNGKLRLLYECAPMSFIVEQAGGKGSDGHQRVLDIQPTEIHQRVPLYIGSTEEVEKVEKYLA,soluble
7,MATPSTGANNSIPAVRNQVEVQVGLVGDAQVGKTSLMVKYVQNIYDKEYTQTLGVNFLKRKVSIRSTDIIFSIMDLGGQREFINMLPIATVGSSVIIFLFDLTRPETLSSIKEWYRQAYGLNDSAIPILVGTKYDLLIDLDPEYQEQISRTSMKYAQVMNAPLIFCSTAKSINIQKIFKIALAKIFNLTLTIPEINEIGDPLLIYKHLGGQQHRHHNKSQDRKSHNIRKPSSSPSSKAPSPGVNT,soluble
8,GMTKKTGFFKRLKALTLPQKQLFATALCQRMLPNYQLFSEVCEFGDPAVLSTALELLWQSLYDPKLKFNIDVHLQRLEDNTPEPADFEAYGVYPAMDAVVAISTLLGAIQGKIEEDIVNISKLSSSTVANYIEAISDVDLVDEALDDFVFAHEVMEEEKELQNSLLEIIEENPKITAELVKGLRKDIIETGVSNIGISVA,soluble
9,MGSDKIHHHHHHMEKSIQDTIHGVIKLEDWMVEIVDTPQFQRLRRINQLGFANLVYPGANHTRFEHSLGVMHVTRILQERMGFDDVVVAAALLHDVGHAPFSHGSERLLEKYASYNHETISKVVRGELKDVLKNLGFRISEIEAIVTGKRRSVVNGEIDADRMDYLVRDSHYTGVAYGVFDIYRLIDKIKFDGAVVIEQGGVKAAESLLISRFLMYPTVYFHHVCRIARKMYERAMERIIEAGFEAENLLEMDDVDAMMLLKEKERETYDRLNNRRLFKRAIYVSRRSLDFREVMRTSERRAEREVAEMAGVDERYVIVDIPPVEEMRESGVMVDTESGLKPLEEVSPLVKALKDAAVENWRLGVYTDRRFVDKVGKAAADYFGIEKVVQKSLDEIFPQ,not soluble
10,MIIIQLNERQLKIIDIVKENEPITSESIASSLNVTRATLRSDLAILTMTGILDARPKVGYFYSGVSEINLIGKSVKEKTVEDIMSMPVLAKKDESIYDVIVTMFLSDVGSIVIIDENEELCGVVSRKDLLKATIGGSDINKMPIGMIMTRTPNVVTLTKGASVLLASRKIIEHEVDSIPIVEYKGEDKNHMRVVGRISKTNITKLFLEIVDN,not soluble
11,MSLLYKKHSLHNIGRWVTNNSFFRKSGRIAVSTFNVAKFGGTSVANFEAMSRCSAIIENNPQTRLVVSSACSGVTNLLVELANGVASTERRQAILQQLADIHYVIIDQLADPTRVEKEVKAVLDSVASAAEAASFQSSKKLTDHLVACGELISTYILTQLMRERGVDAVRFDIREVLRTDDHYGRAEPQLKEIAQLAKEKLVPLCEQYVVVTQGFIGSDAQGNTTTLGRGGSDYSAALIAEAVQASGLEIWTDVPGIYSTDPRIAPKAAPIPEISFSEASEMANFGAKILHPSTLLPAVRHGIPVFVGSSKEPEKGGTWIRKQVESAPLYRALALRCNQTMVTLRSAQMFHAYGFLAKVFEILAKHKISVDLITTSEISVSLTLDKTDTSGGAPELPEAVRAELEELCTVEVEYNLCLIALIGNKMKESRGYAKQVFSVLEDYNLRMICYGASAHNLCFLLHESVSKQAVQKLHKELFEQEEGHHHHHH,soluble
12,MGSDKIHHHHHHMRKKLISILVDGVSADTFEKHAHRLPNMRHLAERGLRVRRLKSAVPATSVPGRATMLTGVGPETHGIYGNHIFRGDASVAPLAEDLLVPTIATHARQAGLDVAAIGQALVNPRDTSVYVSPWWLRGFMTGYRFSKMVTPEALAASRAIHDPEDRLAKAGLTEMDAFRDAADGGAPHLISGLALDQFLNRAVVALLGSDRPPDLLLTEIEMPDAFQHYLGYDSPAGIWSVEFADMLIGNLLAVLERTGRREDYVIAVASDHGHGFVDTAIFPEAIIPDMHWMTEGASLYVSLKAAGDLERVTERLLPYGVELWNDHHVPENLRGTVAMFVAPPRHSFEERPSDASGPLVATGSPHLISTHGFRPGSPEDDRMFILSGGGIAPKVIKAADADQFAPTLASVLGLPLEPYAGRSLIAEESPIARSPQSLELHLK,not soluble
13,MTTAAEIITVEKLNDFDYKVALQQQMVAAQNGAAAAVLRPHQIGSSPEAPQSQTSGGSTEQLQQQPLPPPTQQKQQQPLTIGPVAPNDRSTSSSSTDGPRRLHVSNIPFKYREPDLTAMFEKVGPVVDVEIIFNERGSKGFGFVTMQNPDDADRARAEFNGTTIEGRRVEVNLATQRVHNKKAKPLMSVGVDAMSAQNALISQQQQIQRAALLQQQLLAQQFLVPRHQQLMMPPTSAAAISQLQALQYQQALLAAQQQQQQMQNPQFLLSLQQQQQAQAQAPPTSMAQLIQHQQQFAMDPMAQAQAQAAQAQMVTLIAFEQQRMQLQAAAAAAQGRGVPQPGRIPTSTATTGSSQNQVAAGSIGEQYLQQSMQGAVPANFHHHSQALHPAAAAAAALQRRFAPY,not soluble
14,MGSDKIHHHHHHMTTSTNERTTRAELQDAPRVARLHPQPDYRISVGGRDLSRLFAPRLVSLSISESRSDEADTIDIVLDDSKNDLDIPKRGATIKASIGWAGEPLVDKGSFVVNEVEHSGAPDIITIRARSAAMTSGMQERREKSWHRQTIGSIVHAIAGRYSLSPTVGDALAKILIAHIDQTHESDMSFLTRLAKRYDAVMNVKDLRLLFMPIGTGQTATGKKLDVLELTRASGDSHRYHVSERENYAAVRAHYHSTGRAKRKSVIVGGENNKNVKVLPEDYATEAEARAAAQAEFKRMQRSQATMSYTLARGRAELFPEMPVTVSGFKPEIDETPWLVKKATHTIGDVGFTTALELEMRDDPTTERHRSHFQGSR,not soluble
